In US20160346411A1:
Values joined by “and” are separate entries in the source; they are usually repeats but may differ in a detail not shown here. Equal values may be shown once. Each block holds one molecule with its values, some of them ahead of it. Numbered stars: 1 amine (or outer) side, 2 acyl side, 3 side chain; on linkers, the order of the positions; unused ones are H or OH. Bridge positions count the residues as written; N and C are the ends. TRITC = tetramethylrhodamine dye; Cysteamine = C(CS[*:2])N[*:1]; Ahx = NCCCCCC(=O)O

Assays:
TRITC-Tn6-MDS = test system: T1, TRITC-Tn6-MDS
T1 sequence: QWECPYGLCWIQ

clotted fibrin (human) [1] = test: T1-weighted MR at 1.5T: percent change of signal-intensity ratio, phantom 3 (pelleted fibrin) against phantom 1 (fibrinogen), 10 µM probe, region of the pellet; 1 pre-treated with PDI and DTT is converted to EP-2104R
clotted fibrin (human), sequence (P50402 whole entry, the tested form may be a part): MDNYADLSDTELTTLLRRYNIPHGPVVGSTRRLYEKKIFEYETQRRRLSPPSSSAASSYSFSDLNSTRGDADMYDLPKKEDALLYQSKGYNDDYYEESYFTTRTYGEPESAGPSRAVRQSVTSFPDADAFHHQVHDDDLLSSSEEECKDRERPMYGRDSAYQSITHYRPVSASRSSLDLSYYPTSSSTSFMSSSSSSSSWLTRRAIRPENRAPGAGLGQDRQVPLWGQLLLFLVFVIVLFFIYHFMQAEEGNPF

clotted fibrin (human) [2] = test: T1-weighted MR at 1.5T: percent change of signal-intensity ratio, phantom 3 (pelleted fibrin) against phantom 1 (fibrinogen), 10 µM probe, region of the pellet
clotted fibrin (human) [3] = test: T1-weighted MR at 1.5T: percent change of signal-intensity ratio, phantom 2 (clotted fibrin) against phantom 1 (fibrinogen), 10 µM probe
[4] = molecular target: DD(E), soluble protein fragment of fibrin (human) (UniProt P02671); test: competitive displacement of TRITC-Tn6 (0.1 µM) from DD(E) (2 µM), fluorescence anisotropy
clotted fibrin (human) [5] = test: T1-weighted MR at 1.5T: percent change of signal-intensity ratio, phantom 2 (clotted fibrin) against phantom 1 (fibrinogen), 10 µM probe; 1 pre-treated with PDI and DTT is converted to EP-2104R
clotted fibrin (human) [6] = test: T1-weighted MR at 1.5T: percent change of signal-intensity ratio, phantom 3 (pelleted fibrin) against phantom 1 (fibrinogen), 10 µM probe, liquid above the pellet
[7] = molecular target: DD(E), soluble protein fragment of fibrin (human) (UniProt P02671); test: competitive displacement of TRITC-Tn6 (0.1 µM) from DD(E) (2 µM), fluorescence anisotropy, least-squares regression
clotted fibrin (human) [8] = test: T1-weighted MR at 1.5T: percent change of signal-intensity ratio, phantom 3 (pelleted fibrin) against phantom 1 (fibrinogen), 10 µM probe, liquid above the pellet; 1 pre-treated with PDI and DTT is converted to EP-2104R
[9] = molecular target: DD(E), soluble protein fragment of fibrin (human) (UniProt P02671); test: direct titration of the TRITC probe (0.1 µM) with DD(E) up to about 32 µM, fluorescence anisotropy plotted as % probe bound
[10] = molecular target: DD(E), soluble protein fragment of fibrin (human) (UniProt P02671); test: fluorescence anisotropy, serial dilution of DD(E) mixed with the probe; reference is cyclic TRITC-Tn6

Molecule: protein disulfide isomerase
conversion of the mixed-disulfide form to the cyclized form, followed by LC-MS (TRITC-Tn6-MDS): PDI alone does not promote cyclization of the probe, but PDI in the presence of a reducing agent like dithiothreitol (DTT) promotes rapid conversion of the probe to the desired product compared to DTT alone
real-time change in fluorescence anisotropy in the presence of 2 µM DD(E) (TRITC-Tn6-MDS): it is evident that only when both PDI and DTT are present simultaneously that the probe is efficiently activated
conversion of Compound 1 to EP-2104R, followed by 1/T1 in the presence of 12.0 µM DD(E) (Compound 1): The rate of conversion of 1 to EP-2104R was most rapid for the reaction performed under condition D in which both PDI and DTT were present simultaneously
conversion of Compound 1 to EP-2104R, seen as fall of the anisotropy of TRITC-Tn6 on DD(E) (Compound 1): with 1 mg/L PDI plus 10 µM DTT the anisotropy falls from about 0.25 to about 0.183 in about 1170 s, with DTT alone only to about 0.233; with PDI alone it stays at about 0.25 like untreated
conversion of Compound 1 to EP-2104R, seen as rise of 1/T1 with 12.0 µM DD(E) (Compound 1): with 3 mg/L PDI plus 10.0 µM DTT 1/T1 rises from about 0.69 to about 0.825 s-1 in about 3750 s, with DTT alone from about 0.65 to about 0.715 s-1; with PDI alone it stays at about 0.64 s-1 like untreated

%Δ SIR, lower region (clotted fibrin (human) [1]): 36%
%Δ SIR, lower region (clotted fibrin (human) [2]): 49% and 69%
%Δ SIR (clotted fibrin (human) [3]): 8% and 11%
IC50 (read off the curve) [4]: 2000 nM
%Δ SIR (clotted fibrin (human) [5]): 12%
%Δ SIR, upper region (clotted fibrin (human) [6]): -24% and -21%
Kd [7]: 160 nM
%Δ SIR, upper region (clotted fibrin (human) [8]): -22%
Molecule: EP-2104R (peptide)

Kd [9]: 510 nM
Molecule: {TRITC-Ahx}-QWECPYGLCWIQ-NH2 (disulfide 4-9) [TRITC-Tn6 peptide (cyclic form)]

fold Kd relative to the cyclic form [10]: 20 fold
Kd [9]: 9650 nM
Molecule: {TRITC-Ahx}-QWEC(Cysteamine)PYGLC(Cysteamine)WIQ-NH2 [TRITC-Tn6-MDS]
